Results taken from US20230056821A1.
One block for each substance: values may come before it.

Columns and labels:
PlGF = target: T1, PlGF (UniProt P49763); test: SPR, Biacore T200
T1 sequence (looked up): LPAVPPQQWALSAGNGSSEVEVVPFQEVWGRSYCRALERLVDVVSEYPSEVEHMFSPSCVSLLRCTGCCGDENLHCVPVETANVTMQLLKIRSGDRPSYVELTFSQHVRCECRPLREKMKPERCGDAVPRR

VEGF-A165 (human) [1] = target: VEGF-A165 (human) (UniProt P15692); test: SPR, Biacore T200
VEGF-A121 = VEGF-A121 (UniProt P15692); test: SPR, Biacore T200
VEGF-A165 (human) [2] = target: VEGF-A165 (human) (UniProt P15692); test: cell-based or functional assay
C3b [3] = target: C3b (UniProt P01024); test: SPR, Biacore T200
C4b (human) [4] = target: C4b (human) (UniProt P0C0L4); test: SPR, Biacore T200
C3b [5] = target: C3b (UniProt P01024); test: cell-based or functional assay
C4b (human) [6] = target: C4b (human) (UniProt P0C0L4); test: cell-based or functional assay

Sequence of C4b (human) (P0C0L4 20-1744): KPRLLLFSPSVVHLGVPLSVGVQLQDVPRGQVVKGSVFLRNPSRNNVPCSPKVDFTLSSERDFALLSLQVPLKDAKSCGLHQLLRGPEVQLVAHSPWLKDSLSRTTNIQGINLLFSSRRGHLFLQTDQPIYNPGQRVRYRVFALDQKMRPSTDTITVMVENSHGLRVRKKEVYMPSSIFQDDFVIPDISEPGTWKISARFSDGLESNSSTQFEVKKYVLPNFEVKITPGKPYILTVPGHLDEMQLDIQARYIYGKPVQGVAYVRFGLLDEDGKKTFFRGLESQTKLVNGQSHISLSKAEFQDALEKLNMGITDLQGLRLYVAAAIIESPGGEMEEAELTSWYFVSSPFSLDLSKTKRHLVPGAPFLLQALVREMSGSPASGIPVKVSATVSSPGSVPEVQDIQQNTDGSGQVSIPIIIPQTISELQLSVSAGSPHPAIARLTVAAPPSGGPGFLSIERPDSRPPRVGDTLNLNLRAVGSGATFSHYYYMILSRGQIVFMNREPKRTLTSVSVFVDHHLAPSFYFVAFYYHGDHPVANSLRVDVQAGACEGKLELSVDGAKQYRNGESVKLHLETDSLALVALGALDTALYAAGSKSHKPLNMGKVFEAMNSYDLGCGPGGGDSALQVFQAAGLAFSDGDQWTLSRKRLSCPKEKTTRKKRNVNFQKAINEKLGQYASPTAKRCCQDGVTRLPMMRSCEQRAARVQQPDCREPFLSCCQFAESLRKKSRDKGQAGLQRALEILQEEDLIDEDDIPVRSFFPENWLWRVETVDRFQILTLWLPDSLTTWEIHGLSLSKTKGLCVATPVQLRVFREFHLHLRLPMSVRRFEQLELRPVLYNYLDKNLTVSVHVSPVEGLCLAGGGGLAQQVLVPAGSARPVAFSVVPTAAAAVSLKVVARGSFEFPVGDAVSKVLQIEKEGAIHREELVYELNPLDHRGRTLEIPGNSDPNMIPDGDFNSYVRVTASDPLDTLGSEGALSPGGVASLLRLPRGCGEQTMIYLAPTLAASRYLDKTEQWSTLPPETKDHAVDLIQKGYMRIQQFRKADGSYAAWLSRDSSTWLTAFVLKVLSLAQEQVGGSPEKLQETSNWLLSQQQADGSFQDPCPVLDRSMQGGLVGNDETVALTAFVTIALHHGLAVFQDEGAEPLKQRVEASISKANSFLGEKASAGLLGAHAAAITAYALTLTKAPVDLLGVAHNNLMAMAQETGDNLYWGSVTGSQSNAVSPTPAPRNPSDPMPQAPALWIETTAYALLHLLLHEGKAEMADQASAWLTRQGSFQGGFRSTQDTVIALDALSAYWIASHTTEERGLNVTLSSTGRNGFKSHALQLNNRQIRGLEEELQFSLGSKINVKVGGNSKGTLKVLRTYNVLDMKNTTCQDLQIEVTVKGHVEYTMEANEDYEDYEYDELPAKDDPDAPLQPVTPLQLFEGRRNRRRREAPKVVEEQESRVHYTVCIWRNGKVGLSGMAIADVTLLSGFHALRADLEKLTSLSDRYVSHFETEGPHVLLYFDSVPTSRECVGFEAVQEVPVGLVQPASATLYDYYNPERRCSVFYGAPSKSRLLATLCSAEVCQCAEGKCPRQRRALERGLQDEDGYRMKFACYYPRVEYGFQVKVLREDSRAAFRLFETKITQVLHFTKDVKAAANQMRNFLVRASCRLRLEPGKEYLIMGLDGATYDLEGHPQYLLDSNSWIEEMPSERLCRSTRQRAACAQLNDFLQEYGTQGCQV
Sequence of Aflibercept injection (Fc fusion) (chain): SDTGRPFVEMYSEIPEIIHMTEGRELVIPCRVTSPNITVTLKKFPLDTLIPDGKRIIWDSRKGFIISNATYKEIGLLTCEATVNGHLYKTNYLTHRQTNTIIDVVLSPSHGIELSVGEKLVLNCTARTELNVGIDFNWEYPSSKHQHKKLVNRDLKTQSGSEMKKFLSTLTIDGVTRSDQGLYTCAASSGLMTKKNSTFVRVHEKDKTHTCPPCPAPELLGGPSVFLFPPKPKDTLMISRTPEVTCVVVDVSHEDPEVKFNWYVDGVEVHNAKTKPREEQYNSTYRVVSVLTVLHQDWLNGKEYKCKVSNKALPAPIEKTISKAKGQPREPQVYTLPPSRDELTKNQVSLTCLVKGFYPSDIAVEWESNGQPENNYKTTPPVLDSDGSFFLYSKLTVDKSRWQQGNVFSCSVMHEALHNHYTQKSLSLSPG
Sequence of VEGF-A165 (human) (P15692 other isoform, or with tags, fused parts or gaps limits assumed): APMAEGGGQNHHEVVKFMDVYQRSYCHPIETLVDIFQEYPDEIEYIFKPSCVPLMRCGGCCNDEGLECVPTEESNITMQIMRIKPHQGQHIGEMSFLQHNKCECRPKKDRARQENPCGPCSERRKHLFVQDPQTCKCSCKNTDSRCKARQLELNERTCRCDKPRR
Sequence of VEGF-A121 (P15692 other isoform, or with tags, fused parts or gaps limits assumed): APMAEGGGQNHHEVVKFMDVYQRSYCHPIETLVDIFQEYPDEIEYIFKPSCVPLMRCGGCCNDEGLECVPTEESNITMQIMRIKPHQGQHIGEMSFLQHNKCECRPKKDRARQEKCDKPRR

Kd (PlGF): 1.16 nM | koff (PlGF): 0.00384 s⁻¹ | kon (PlGF): 3.32e+06 M⁻¹ s⁻¹ | Kd (VEGF-A165 (human) [1]): 0.00387 nM | koff (VEGF-A165 (human) [1]): 7.93e-05 s⁻¹ | kon (VEGF-A165 (human) [1]): 2.05e+07 M⁻¹ s⁻¹ | Kd (VEGF-A121): 0.00778 nM | koff (VEGF-A121): 4.25e-05 s⁻¹ | kon (VEGF-A121): 5.46e+06 M⁻¹ s⁻¹ | EC50 (ng/mL), inhibition of VEGF-A-induced HUVEC proliferation (CCK-8) (VEGF-A165 (human) [2]): 41 ng/mL | EC50, inhibition of VEGF-A-induced HUVEC proliferation (CCK-8) (VEGF-A165 (human) [2]): 0.357 nM
Substance: Aflibercept injection (Fc fusion)

Kd (C3b [3]): 0.35 nM | koff (C3b [3]): 0.0011 s⁻¹ | kon (C3b [3]): 3.16e+06 M⁻¹ s⁻¹ | Kd (C4b (human) [4]): 17.1 nM | koff (C4b (human) [4]): 0.000805 s⁻¹ | kon (C4b (human) [4]): 47000 M⁻¹ s⁻¹
Substance: Human complement receptor type 1 (from UniProt P17927 42-1971)

Kd (C3b [3]): 9.96 nM | koff (C3b [3]): 0.00287 s⁻¹ | kon (C3b [3]): 288000 M⁻¹ s⁻¹ | Kd (C4b (human) [4]): 7.75 nM | koff (C4b (human) [4]): 0.00335 s⁻¹ | kon (C4b (human) [4]): 432000 M⁻¹ s⁻¹
Substance: IBI302 (Fc fusion)
EC50, inhibition of hemolysis of rabbit red blood cells induced by human serum complement (alternative pathway) (C3b [5]): 14.6 nM | EC50, inhibition of hemolysis of sensitized sheep red blood cells induced by human serum complement (classical pathway) (C3b [5]): 2.51 nM | EC50, inhibition of hemolysis of rabbit red blood cells induced by human serum complement (alternative pathway) (C4b (human) [6]): 14.6 nM | EC50, inhibition of hemolysis of sensitized sheep red blood cells induced by human serum complement (classical pathway) (C4b (human) [6]): 2.51 nM
